This experiment addresses T1, full-length Kluyveromyces lactis (Kl) Kap123, wild type.
T1 chain: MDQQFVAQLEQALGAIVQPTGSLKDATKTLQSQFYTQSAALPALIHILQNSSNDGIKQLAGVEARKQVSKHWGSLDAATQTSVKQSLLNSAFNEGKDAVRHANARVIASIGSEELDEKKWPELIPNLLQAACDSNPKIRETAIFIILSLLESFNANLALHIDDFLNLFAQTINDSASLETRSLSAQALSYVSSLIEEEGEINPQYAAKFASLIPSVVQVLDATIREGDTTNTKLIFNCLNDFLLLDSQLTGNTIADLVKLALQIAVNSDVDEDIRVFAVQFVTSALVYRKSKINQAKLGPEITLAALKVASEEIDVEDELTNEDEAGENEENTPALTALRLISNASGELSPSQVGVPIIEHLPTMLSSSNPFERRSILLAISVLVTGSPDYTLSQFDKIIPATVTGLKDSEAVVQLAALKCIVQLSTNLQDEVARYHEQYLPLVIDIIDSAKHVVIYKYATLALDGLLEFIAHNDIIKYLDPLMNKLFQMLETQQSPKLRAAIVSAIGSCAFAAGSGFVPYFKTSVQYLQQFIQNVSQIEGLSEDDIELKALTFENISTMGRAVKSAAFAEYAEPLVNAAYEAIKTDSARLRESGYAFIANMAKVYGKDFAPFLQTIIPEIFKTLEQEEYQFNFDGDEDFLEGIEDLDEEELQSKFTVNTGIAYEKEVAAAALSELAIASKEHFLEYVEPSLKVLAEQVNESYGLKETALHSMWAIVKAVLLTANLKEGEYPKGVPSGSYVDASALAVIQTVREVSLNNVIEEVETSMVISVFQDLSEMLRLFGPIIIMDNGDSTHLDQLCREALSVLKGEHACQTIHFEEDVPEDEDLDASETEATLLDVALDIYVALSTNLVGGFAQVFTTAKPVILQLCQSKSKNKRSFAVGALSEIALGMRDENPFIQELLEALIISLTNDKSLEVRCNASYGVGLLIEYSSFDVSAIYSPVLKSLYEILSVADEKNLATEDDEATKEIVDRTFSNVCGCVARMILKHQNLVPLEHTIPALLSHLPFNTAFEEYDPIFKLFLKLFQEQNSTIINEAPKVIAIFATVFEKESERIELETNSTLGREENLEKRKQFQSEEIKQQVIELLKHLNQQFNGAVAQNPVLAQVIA
Description: SPR. Particulars: chain shown with the change; 7°C; wild-type Kap123 immobilized on a CM5 chip with 7116 RU; peptides injected at 0-10 µM; parent: est. 1.00; read off a plot.

Here are results for one molecule from article PMC5677370, “Structure-based nuclear import mechanism of histones H3 and H4 mediated by Kap123” (eLife, 2017).

Consider SGRGQGGKGLGQGGAKRHRKI [wild-type H4_(1–21)-NLS peptide, P02309 K5Q; K12Q], for which the ratio to parent amounted to 0.4.
